For this assay, the target named is fluorescently labeled SpRpn12 (Schizosaccharomyces pombe) (UniProt P50524). As to the kind of experiment: fluorescence polarisation.

Turning to NQFEYGVDPNLDVELALALELSMAEERARQEVAAQKSSEETEDKKMQE (domain or fragment) [SpRpn10 residues 196-243 (UIM-containing C-terminal sequence)], the dissociation constant Kd was 18 µM. This lies in the double-digit micromolar range.
